Results as given in PMC5384220.

Molecular target: T1, N-terminally Hexa-His-tagged KDM4A (residues 1–359) (human) (UniProt O75164)
T1 sequence: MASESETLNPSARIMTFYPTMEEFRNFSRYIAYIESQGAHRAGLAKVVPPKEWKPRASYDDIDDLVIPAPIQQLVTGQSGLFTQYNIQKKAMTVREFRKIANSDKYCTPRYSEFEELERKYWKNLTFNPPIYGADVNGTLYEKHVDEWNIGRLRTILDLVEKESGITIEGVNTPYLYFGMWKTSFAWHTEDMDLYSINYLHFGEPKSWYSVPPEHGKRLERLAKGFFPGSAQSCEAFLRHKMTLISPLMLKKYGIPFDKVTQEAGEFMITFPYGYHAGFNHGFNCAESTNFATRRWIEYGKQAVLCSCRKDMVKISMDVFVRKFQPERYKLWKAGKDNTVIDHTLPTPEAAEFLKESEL

IC50 of inhibition of demethylase activity (AlphaScreen method): 40 nM
Binder: RRRRRRRRR [PolyR (Arg)9 peptide]
